Consider 2 molecules from PMC4333382, “RNA helicase A activity is inhibited by oncogenic transcription factor EWS-FLI1” (Nucleic Acids Research, 2015).

The target of data set [1] is T1, EWS-FLI1 (UniProt F1JVV7).
T1 chain: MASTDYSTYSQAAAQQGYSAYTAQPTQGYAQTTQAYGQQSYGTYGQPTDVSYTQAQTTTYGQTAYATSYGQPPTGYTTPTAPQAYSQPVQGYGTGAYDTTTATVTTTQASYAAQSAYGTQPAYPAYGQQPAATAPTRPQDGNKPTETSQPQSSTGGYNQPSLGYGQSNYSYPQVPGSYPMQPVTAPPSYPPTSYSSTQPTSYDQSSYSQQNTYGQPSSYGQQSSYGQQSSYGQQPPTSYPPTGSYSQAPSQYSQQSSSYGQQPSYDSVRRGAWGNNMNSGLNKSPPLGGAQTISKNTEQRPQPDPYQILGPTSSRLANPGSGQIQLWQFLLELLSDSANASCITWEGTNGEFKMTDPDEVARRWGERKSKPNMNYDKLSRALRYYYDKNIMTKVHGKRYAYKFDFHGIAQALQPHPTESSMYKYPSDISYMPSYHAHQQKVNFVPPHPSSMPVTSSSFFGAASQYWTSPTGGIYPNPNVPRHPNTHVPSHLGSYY
The experiment in a line: competition; 30 nM EWS-FLI1, competes with 32P HDV RNA (N1?); EMSA: 25 mM HEPES pH 7.4, 80 mM NaCl, 2 mM MgCl2, 2 mM DTT, Superase In, 5 pmol 32P-RNA, 10 min room temperature, 6% native PAGE 0.5x TBE; AFM: 25 mM HEPES pH 7.4, 2 mM MgCl2, 1 mM TCEP, 25 C, 1 min. Particulars: protein: recombinant; blunt.

In data set [2] the target is T1, EWS-FLI1. The data set is described as above. The conditions noted are these: protein: recombinant; blunt.

B1: wt ets-DNA (dsDNA)
DNA 1: ATGTAGACCGGAAGTAACTA
DNA 2: TAGTTACTTCCGGTCTACAT
Take B1: the binding result with EWS-FLI1 [1] is on record as “binds”.

B2: mut ets-DNA (GGAA to GCTA) (dsDNA)
DNA 1: ATGTAGACCGCTAGTAACTA
DNA 2: TAGTTACTAGCGGTCTACAT
Turning to B2, the binding signal with EWS-FLI1 [2] is 30 % of wild-type efficiency at displacing RNA.
